Biological target: the molecule itself
Experiment: CD thermal denaturation at 222 nm, 16 uM, homodimer
Protocol: 16 μM of Mad1*DN, Mad1*DN-KR and/or Max* diluted in Phosphate buffer (50 mM) containing 50 mM KCl and 0.5 mM TCEP were subjected to temperature increase as the dichroic signal corresponding to α-Helical signal (222 nm) was recorded. Individual denaturation curves for each protein was recorded. To compare the heterodimeric complex formation, Mad1*DN or Mad1*DN-KR were mixed with Max* at equimolar concentration (16 μM each) in the same buffer adjusted at 1 mM TCEP. The experimental denaturation curves of the complexes (Mad1*DN/Max* or Mad1DN-KR/Max*) were compared to the summation of the individual curves of each homodimer which correspond to an absence of interaction between the two proteins in solution.

B1: Mad1*DN-KR (Mad1 b-HLH-LZ domain with C75S, E77K, G81R, C111S, D112N) (other)
chain: MSRSTHNEMEKNRRAHLRLSLKKLKRLVPLGPESSRHTTLSLLTKAKLHIKKLEDSNRKAVHQVDQLQREQRHLKRQLEKLGGSGC
notes: Engineered variant of the human Mad1 b-HLH-LZ domain; It forms a homodimer alone and a heterodimer with Max*; also called KR analog of Mad1*DN
binding result: binds
